Ends that are not written are not given here.
Tests used:
[1] = biological target: T1, ErbB-3 receptor-Ig fusion (homodimer) (human, UniProt P21860 20-643; P21860 20-636); test: phage ELISA, soluble ErbB-3-Ig as competitor
[2] = biological target: T2, ErbB-4 receptor-Ig fusion (homodimer) (human, UniProt Q15303 26-651; Q15303 26-640); test: phage ELISA, soluble ErbB-4-Ig as competitor
[3] = biological target: T1, ErbB-3 receptor-Ig fusion (homodimer); test: phage ELISA, soluble ErbB-3-Ig as competitor; remark: listed apart in the source
[4] = biological target: T2, ErbB-4 receptor-Ig fusion (homodimer); test: phage ELISA, soluble ErbB-4-Ig as competitor; remark: listed apart in the source

T1 sequence (P21860 other isoform, or with tags, fused parts or gaps): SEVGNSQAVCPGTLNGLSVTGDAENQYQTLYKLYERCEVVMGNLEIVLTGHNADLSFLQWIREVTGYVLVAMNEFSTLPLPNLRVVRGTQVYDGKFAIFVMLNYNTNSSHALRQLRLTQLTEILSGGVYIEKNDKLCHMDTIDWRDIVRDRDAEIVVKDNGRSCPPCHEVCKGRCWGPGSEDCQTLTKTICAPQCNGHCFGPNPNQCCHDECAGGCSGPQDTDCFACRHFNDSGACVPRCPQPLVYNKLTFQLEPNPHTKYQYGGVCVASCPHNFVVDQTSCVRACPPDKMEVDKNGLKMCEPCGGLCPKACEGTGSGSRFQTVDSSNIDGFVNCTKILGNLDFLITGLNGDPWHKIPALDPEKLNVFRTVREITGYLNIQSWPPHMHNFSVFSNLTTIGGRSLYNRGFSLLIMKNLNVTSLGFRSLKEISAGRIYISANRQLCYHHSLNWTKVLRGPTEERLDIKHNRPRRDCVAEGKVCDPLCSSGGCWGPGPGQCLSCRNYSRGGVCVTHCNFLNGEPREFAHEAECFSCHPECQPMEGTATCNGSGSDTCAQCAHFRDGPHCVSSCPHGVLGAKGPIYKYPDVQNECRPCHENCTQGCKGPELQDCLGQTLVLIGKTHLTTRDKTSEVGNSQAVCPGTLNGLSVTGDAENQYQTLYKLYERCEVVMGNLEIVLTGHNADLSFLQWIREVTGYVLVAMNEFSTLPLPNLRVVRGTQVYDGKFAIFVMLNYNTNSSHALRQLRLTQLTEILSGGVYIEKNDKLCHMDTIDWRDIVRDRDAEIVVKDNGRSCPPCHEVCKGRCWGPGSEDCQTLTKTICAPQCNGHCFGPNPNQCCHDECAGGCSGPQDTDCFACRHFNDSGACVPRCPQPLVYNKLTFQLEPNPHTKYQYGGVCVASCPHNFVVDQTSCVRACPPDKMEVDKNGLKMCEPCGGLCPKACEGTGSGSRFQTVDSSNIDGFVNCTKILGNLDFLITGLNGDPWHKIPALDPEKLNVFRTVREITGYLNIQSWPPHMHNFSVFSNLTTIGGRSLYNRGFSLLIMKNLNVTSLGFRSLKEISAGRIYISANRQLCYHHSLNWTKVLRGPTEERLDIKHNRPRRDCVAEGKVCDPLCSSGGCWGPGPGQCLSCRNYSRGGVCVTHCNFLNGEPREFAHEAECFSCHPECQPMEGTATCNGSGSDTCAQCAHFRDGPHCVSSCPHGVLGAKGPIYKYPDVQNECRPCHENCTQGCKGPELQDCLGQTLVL
T2 sequence (Q15303 other isoform, or with tags, fused parts or gaps): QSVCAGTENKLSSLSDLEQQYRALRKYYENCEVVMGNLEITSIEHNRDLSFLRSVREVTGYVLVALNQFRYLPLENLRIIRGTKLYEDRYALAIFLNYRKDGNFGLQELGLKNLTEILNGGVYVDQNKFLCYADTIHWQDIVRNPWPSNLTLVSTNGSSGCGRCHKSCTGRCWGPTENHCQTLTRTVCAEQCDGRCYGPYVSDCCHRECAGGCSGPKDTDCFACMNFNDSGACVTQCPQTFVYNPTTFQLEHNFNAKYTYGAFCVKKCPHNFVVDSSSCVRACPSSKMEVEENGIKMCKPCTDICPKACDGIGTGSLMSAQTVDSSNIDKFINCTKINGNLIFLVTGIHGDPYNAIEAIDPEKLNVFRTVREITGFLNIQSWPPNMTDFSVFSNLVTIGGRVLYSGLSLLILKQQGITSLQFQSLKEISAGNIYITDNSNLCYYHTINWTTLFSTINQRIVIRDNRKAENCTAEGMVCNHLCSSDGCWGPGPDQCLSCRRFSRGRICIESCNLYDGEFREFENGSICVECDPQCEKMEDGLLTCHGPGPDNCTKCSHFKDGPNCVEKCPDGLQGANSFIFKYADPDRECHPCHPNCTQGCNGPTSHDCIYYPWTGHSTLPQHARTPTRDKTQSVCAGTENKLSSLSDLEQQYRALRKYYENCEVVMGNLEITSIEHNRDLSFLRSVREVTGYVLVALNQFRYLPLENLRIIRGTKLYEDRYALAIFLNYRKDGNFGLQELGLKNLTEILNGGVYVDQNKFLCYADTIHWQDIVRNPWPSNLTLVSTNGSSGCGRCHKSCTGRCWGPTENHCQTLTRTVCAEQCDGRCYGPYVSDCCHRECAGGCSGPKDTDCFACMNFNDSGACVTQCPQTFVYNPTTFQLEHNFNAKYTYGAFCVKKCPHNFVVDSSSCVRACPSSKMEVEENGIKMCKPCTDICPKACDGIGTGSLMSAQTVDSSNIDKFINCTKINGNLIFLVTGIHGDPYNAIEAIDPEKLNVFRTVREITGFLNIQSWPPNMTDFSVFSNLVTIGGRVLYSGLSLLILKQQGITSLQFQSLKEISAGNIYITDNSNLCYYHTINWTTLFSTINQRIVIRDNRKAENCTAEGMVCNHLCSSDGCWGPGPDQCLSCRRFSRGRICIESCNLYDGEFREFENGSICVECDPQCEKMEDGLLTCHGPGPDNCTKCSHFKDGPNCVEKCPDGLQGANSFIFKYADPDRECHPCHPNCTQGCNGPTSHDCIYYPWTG

B1: HRG-β1 EGF variant D4, phage-displayed (ligand)
chain: SHLVKCAEKEKTFCVNGGECYRVKTLSNPSRYLCKCPNEFTGDRCQNYVMAS
modifications: not fully specified; cysteine pairing not given here
notes: pHRG8-g3 scaffold; not shown: Display carrier only: the (GGGS)3 linker and the M13 pIII C-terminal fragment from residue 323
For B1, the “EC50(wt)/EC50(mut)” value [1] was 2.9 ratio and the “EC50(wt)/EC50(mut)” value [2] was 5 ratio.

B2: HRG-β1 177-244 F216A, phage-displayed (ligand, phage M13)
chain: SHLVKCAEKEKTFCVNGGECFMVKDLSNPSRYLCKCPNEATGDRCQNYVMASFYKHLGIEFMEAEELYGGSGGGSGSGDFDYEKMANANKGAMTENADENALQSDAKGKLDSVATDYGAAIDGFIGDVSGLANGNGATGDFAGSNSQMAQVGDGDNSPLMNNFRQYLPSLPQSVECRPFVFSAGKPYEFSIDCDKINLFRGVFAFLLYVATFMYVASTFANILRNKES
notes: range 247-end
Binder B2 has an EC50 [3] of 500 nM.

B3: HRG8: wild-type HRG-β1 177-228 (HRG-β1 EGF 1-52) fused via (GGGS)3 to pIII 323, phage-displayed (ligand, phage M13)
chain: SHLVKCAEKEKTFCVNGGECFMVKDLSNPSRYLCKCPNEFTGDRCQNYVMASGGGSGGGSGGGSNSQMAQVGDGDNSPLMNNFRQYLPSLPQSVECRPFVFSAGKPYEFSIDCDKINLFRGVFAFLLYVATFMYVFSTFANILRNKES
notes: range 323-end; Monovalent M13 phage display; also called wild-type HRG-β1 EGF-phage
B3 was tested, and the “EC50(wt)/EC50(mut)” value [1] was 1 ratio and the “EC50(wt)/EC50(mut)” value [2] was 1 ratio.

B4: HRG-β1 177-244 F189A, phage-displayed (ligand)
chain: SHLVKCAEKEKTACVNGGECFMVKDLSNPSRYLCKCPNEFTGDRCQNYVMASFYKHLGIEFMEAEELY
With B4 the EC50 [3] was 892 nM and the EC50 [4] was 106 nM.

Source: patent US6387638
